# ± gives the half width of the 95% confidence interval.
# Experiments:
# [1] = folding stability dG unfold from chymotrypsin proteolysis; higher = more stable
# Protocol: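 Folding stability of de novo designed mini-proteins (<80 aa, no Cys; designed by TrROS, TrMRF, ProteinMPNN and the joint model) was measured by cDNA display proteolysis with trypsin and chymotrypsin. Each protease was used at 11 concentrations in a threefold dilution series plus a no-protease condition. K50 was inferred by Bayesian fitting of sequencing counts, and dG unfold was derived against a sequence-predicted unfolded-state K50 (Tsuboyama et al. method). Sequences shown include variable-length N-terminal GS-type padding (SAGGSAGG...) inside a display construct carrying a PA tag. Rows were kept only if the AF2 dimer inter-PAE was >15, to exclude likely homo-oligomers.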
# [2] = folding stability dG unfold (combined trypsin and chymotrypsin); higher = more stable
# Summary of the method: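 Sequencing followed digestion of designed mini-proteins with trypsin and chymotrypsin, each at 11 concentrations in threefold dilutions together with a no-protease condition. The mini-proteins were under 80 residues, had no cysteine, sat in a PA-tagged cDNA display construct, and were kept only if AlphaFold2 dimer inter-PAE was above 15. From the counts, Bayesian fitting gave K50, and unfolding free energy was derived against a sequence-predicted unfolded-state K50 and a shared folded-state K50, per protease or combined.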
Sequence,folding stability dG unfold [1] [kcal/mol],folding stability dG unfold [2] [kcal/mol]
SAGGSAGGSGGMRVIRTKLEETEFFEETGESRTFEGLVIVEKEIYLPPYPRYPVFRFDEEKEASAGGSAGGS [r12_140_JUSTAS],-0.379 ± 0.41,-0.526 ± 0.42
SAKVHIPFPPGMPPKQMRNMVKNALREQQNNGKEPDKITIHMPPDQRPIKDWLKEAGLPPDNVKWEPWPSAG [r14_589_TrROS],-0.422 ± 0.55,< -1
SAGGSAGGSEGFVLRVRRYRRRPDDRVRVPVSEAELEVLPELADAVARALREASPEVEVELRPSAGGSAGGS [r12_342_TrMRF],0.0982 ± 0.27,< -1
SAGGSAGGSAGGMTETVTLTEVGVTTKTAPLPEGPLTTTPTVTVDRVITLPPSSPAALALSAGGSAGGSAGG [r7_889_JUSTAS],-0.257 ± 0.42,< -1
SAGGSAGGSMIVVPLERELDPSEPGLTKEEVKAILEAKGLDVVDIKVSTDPAKGLTRAVAKVKSAGGSAGGS [r12_1052_JUSTAS],-0.851 ± 0.35,< -1
SAGGTTTRTTVYFDDGKVYELTDPEEVEKTIKEKLGKNYKIVSEEEYTEPSPDGPPLPARRLKLKKKSAGGS [r16_408_JUSTAS],-0.795 ± 0.33,< -1
SAGGSAGGSAGMKVFIFKDPEKAIEAIKEFAGKNGVKYKIIEIETTPDGYVKIKVEFEPISAGGSAGGSAGG [r11_304_TrMRF],5.31 ± 0.22,5.48 ± 0.25
SAGGMEEIRELLREGKIDEVVERLKELGYEDVKITPIPDKPVVKIEVVRYDPVTGKPTKFTLTIPLEPSAGG [r13_359_TrMRF],5.27 ± 0.11,5.67 ± 0.32
SAGGSAGGSAGGMYSVTLTPVSSPDGELRLRAVYPELGLVRDFDPATGRPVRVVPAALLSAGGSAGGSAGGS [r10_589_JUSTAS],0.411 ± 0.22,-0.422 ± 0.26
SAGGKKKKREIEIQIPVPDEEMKKNGMDPSEFAEELAKELQSLLPPGFEDIDLDVEPHPNGWPRIKIESAGG [r13_271_TrROS],-0.281 ± 0.043,-0.724 ± 0.3
SAGGSAGGSAGGTVKELMKKLPFGAQIEIDEIEHDKGRIEIPIRVENMPPEWREKLRKLSAGGSAGGSAGGS [r10_733_TrROS],0.0365 ± 0.15,-0.305 ± 0.23
SAGGSAGGSAGGMVKTTTQVSIDPNSDYRYTTTTTTVVDANGKPLATQTTLTVTKLAGTSSAGGSAGGSAGG [r7_616_JUSTAS],-0.125 ± 0.34,-0.516 ± 0.42
SAGMSSTPQKIVRTTGSTPLPDGSAVSTTTTTYSDGSSTVTTAIPGGLETRATVPPDGTVTTTTAPLLGSAG [r5_168_JUSTAS],-0.248 ± 0.23,-0.422 ± 0.26
SAGGVIGTRKKVNKIEKPVPEGATTTPSIIGNTTILTTTAPDGSTVTVTLTKTEPIPGKPDVSEKYEASAGG [r13_804_JUSTAS],0.11 ± 0.042,-0.265 ± 0.12
PPVGPDAPVTPTTTPTPSGKTVTTTDRPLRREVTTTDPSTGTYTVTLTETDAAGRVLATRTETLSPEEVAAS [r1_380_JUSTAS],-0.0788 ± 0.36,-0.541 ± 0.31
SAGGSAGGSMTETVEKTMPSNGATAEITKLPDGSIKVTIKGSNPVIETFPADEPLVIKPGLEGSAGGSAGGS [r12_1003_JUSTAS],0.621 ± 0.095,0.263 ± 0.18
SAGGSAGGSAGGDVLLFVDESTGLADARALAEALGLKDVVIVPVPPAKPVVLNADGSPTSAGGSAGGSAGGS [r10_1083_TrMRF],0.63 ± 0.052,-0.0616 ± 0.1
SAGGSAGGSMLKVRIKIEIDGKTLEVEIEVPPGTTIEELAEALKKLFPGKEVKIVSVEVYELPSAGGSAGGS [r12_427_TrROS_Hall],4.23 ± 0.14,4.47 ± 0.25
SAGGSAGGSAGVKIRMRGPNGSESKIPVPPDAIQDKFPPGDPIRIPIHRHNNNFHMDIEPVSAGGSAGGSAG [r3_86_TrROS],0.353 ± 0.043,-0.0674 ± 0.086
SADKEAVRKIAEKFMQEPGFEPRGISPDGHIMFRPPGQGRMYRIDIDVEKDNDGLDVKIPDIEPVPMPDSAG [r14_20_TrROS],-0.0277 ± 0.31,< -1
SAGGSAGGSAGMTITVYPSDGTVLTRDMSLSEIPELLKKHPELVLESIEEGEGLAKFKVKSAGGSAGGSAGG [r17_22_JUSTAS],-1.05 ± 0.81,< -1
SAGGPKVVKGKKVEKVELEVGKLPDGVELVKVKVRSKEVDKEFTFTFEPGQDLGEFGKATGFDIGVESAGGS [r16_676_TrMRF],0.552 ± 0.16,0.14 ± 0.17
SAGGSAGGSAGGNVPIPFLPEGFDVEVKKIEVPTPGKVKLVLVPKNSDEEFELEFSPEELSAGGSAGGSAGG [r7_342_TrMRF],-0.633 ± 0.2,< -1

# From the supplement of paper PMC12764529
